In this test the target is Concanavalin A (Canavalia ensiformis, UniProt P02866). The test can be described thus: spectral shift (thermal shift in results).
Sequence of Concanavalin A (P02866 30-148, chain 1 of 2): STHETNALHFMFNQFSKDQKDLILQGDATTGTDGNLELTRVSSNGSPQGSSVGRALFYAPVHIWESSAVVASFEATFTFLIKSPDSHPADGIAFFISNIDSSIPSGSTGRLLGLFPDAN
Sequence of Concanavalin A (P02866 164-281, chain 2 of 2): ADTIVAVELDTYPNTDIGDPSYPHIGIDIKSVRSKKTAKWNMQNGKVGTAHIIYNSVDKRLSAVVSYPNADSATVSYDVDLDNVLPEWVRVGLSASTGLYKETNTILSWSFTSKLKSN

B1: FimA (protein)
chain: AATTVNGGTVHFKGEVVNAACAVDAGSVDQTVQLGQVRTASLAQEGATSSAVGFNIQLNDCDTNVASKAAVAFLGTAIDAGHTNVLALQSSAAGSATNVGVQILDRTGAALTLDGATFSSETTLNNGTNTIPFQARYFATGAATPGAANADATFKVQYQ
B1: the Kd (in general, the equilibrium constant for the complex coming apart) was roughly 40 µM.

Source of the values: publication PMC11839208 (2025).
